Source: article PMC2120351 (The Journal of Cell Biology, 1995)

What was measured:
[1] = target: the molecule itself; assay: far-Western, overlay or dot blot
[2] = target: T1, recombinant whole p62 (rat nucleoporin p62 expressed in E. coli) (rat, UniProt P17955 1-525); assay: far-Western, overlay or dot blot
T1 sequence: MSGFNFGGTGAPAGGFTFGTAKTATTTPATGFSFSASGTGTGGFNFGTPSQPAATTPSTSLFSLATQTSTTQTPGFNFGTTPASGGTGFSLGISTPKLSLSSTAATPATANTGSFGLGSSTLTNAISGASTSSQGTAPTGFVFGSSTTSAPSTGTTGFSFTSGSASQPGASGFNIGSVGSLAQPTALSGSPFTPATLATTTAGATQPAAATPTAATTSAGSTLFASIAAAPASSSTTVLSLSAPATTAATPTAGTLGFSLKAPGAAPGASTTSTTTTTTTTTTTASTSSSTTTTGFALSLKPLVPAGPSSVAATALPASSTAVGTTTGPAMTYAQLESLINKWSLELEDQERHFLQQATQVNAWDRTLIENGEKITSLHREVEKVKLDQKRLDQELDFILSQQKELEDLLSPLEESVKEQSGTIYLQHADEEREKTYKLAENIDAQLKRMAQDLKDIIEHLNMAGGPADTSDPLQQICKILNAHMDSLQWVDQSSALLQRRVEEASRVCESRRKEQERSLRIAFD

B1: recombinant p62 rod domain (domain or fragment)
chain: MTYAQLESLINKWSLELEDQERHFLQQATQVNAWDRTLIENGEKITSLHREVEKVKLDQKRLDQELDFILSQQKELEDLLSPLEESVKEQSGTIYLQHADEEREKTYKLAENIDAQLKRMAQDLKDIIEHLNMAGGPADTSDPLQQICKILNAHMDSLQWVDQSSALLQRRVEEASRVCESRRKEQERSLRIAFD
- binding result [1]: binds
- binding result [2]: binds
